Measured values reported in patent publication US20220204643A1 (published 2022).

Columns and labels:
[1] = target: T1, charged multivesicular body protein 4B (human, UniProt Q9H444 2-224); assay: protein array
T1 construct: on protein array; also called CHMP4B
T1 sequence: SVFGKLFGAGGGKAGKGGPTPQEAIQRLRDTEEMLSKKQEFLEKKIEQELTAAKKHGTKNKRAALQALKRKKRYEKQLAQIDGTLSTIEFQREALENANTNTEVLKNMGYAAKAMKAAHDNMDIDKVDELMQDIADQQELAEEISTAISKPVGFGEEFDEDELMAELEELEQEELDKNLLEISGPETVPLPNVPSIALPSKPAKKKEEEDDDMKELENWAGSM

[2] = target: T2, endosome associated trafficking regulator 1, transcript variant 2 (human, UniProt Q96C92 59-435); assay: protein array
T2 construct: on protein array; also called SDCCAG3
T2 chain: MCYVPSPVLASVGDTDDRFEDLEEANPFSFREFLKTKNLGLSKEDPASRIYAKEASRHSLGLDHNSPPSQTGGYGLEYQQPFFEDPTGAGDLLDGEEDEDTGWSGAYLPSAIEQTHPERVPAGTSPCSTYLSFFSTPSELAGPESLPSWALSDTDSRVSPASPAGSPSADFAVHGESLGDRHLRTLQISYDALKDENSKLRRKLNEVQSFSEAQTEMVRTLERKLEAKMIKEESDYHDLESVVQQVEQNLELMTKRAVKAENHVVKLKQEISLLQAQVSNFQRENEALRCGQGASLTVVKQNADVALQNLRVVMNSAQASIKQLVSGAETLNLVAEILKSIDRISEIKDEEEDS

[3] = target: T3, Vezatin, adherens junctions transmembrane protein (human, UniProt Q9HBM0 56-779 at identity 0.99), limits assumed)
T3 construct: also called VEZT
T3 chain: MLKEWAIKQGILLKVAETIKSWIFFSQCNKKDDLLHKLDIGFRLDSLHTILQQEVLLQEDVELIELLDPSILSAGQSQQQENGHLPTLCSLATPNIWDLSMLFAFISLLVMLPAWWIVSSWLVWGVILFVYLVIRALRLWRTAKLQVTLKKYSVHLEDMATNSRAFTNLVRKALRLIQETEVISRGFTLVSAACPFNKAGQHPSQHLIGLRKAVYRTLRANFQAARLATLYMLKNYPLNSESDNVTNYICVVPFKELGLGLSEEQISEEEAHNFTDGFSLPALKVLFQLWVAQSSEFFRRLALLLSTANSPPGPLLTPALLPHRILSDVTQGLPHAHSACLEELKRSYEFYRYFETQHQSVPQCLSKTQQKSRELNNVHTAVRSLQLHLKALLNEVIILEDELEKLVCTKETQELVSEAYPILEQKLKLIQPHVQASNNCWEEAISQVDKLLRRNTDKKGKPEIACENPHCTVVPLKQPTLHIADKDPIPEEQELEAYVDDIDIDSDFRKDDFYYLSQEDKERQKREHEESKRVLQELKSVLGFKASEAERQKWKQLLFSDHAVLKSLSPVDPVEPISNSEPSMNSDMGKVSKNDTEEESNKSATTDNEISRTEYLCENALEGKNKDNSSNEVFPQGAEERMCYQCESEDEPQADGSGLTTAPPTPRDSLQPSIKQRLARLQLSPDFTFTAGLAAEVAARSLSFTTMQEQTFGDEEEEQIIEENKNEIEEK

DEAD-box helicase 53 = target: T4, DEAD-box helicase 53 (human, UniProt Q86TM3 1-631)
T4 construct: also called DDX53
T4 sequence (Q86TM3 other isoform, or with tags, fused parts or gaps limits assumed): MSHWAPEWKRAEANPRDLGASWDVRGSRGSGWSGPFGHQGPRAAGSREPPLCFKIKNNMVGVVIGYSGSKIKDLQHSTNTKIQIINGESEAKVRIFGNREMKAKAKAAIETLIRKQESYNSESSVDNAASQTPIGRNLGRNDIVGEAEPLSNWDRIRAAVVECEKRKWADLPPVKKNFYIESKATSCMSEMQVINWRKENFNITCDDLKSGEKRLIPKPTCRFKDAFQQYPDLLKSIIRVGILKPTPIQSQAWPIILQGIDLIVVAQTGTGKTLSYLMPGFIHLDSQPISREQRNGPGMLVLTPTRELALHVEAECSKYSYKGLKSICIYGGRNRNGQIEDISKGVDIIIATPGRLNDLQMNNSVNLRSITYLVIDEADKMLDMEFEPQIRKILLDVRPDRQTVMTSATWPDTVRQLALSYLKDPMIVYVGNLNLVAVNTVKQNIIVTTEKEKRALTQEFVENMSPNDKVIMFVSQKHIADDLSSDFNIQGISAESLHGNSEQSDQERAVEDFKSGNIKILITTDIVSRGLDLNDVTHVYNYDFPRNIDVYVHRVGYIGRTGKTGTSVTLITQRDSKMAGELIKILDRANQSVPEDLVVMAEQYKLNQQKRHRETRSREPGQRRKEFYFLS

[4] = target: T5, nudix hydrolase 22, transcript variant 2 (human, UniProt Q9BRQ3 1-303)
T5 construct: also called NUDT22
T5 chain: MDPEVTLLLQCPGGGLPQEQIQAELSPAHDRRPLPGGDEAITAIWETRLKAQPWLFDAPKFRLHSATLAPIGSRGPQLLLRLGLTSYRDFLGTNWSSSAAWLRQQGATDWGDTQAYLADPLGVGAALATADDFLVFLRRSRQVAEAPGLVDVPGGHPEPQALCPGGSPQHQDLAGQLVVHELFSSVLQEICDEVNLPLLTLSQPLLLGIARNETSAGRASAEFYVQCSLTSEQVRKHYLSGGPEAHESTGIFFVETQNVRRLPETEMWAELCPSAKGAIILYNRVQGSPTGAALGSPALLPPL

[5] = target: T6, grancalcin, transcript variant 4 (human, UniProt P28676 1-217)
T6 construct: also called GCA
T6 sequence: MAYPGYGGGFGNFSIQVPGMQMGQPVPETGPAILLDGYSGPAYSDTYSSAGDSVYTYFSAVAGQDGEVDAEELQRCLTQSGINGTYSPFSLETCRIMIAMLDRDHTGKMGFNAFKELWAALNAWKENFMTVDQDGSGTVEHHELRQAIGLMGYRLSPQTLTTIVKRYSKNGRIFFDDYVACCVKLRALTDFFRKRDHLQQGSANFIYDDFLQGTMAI

[6] = target: T7, Rna polymerase iii subunit g (human, UniProt O15318 1-223)
T7 construct: also called POLR3G
T7 sequence: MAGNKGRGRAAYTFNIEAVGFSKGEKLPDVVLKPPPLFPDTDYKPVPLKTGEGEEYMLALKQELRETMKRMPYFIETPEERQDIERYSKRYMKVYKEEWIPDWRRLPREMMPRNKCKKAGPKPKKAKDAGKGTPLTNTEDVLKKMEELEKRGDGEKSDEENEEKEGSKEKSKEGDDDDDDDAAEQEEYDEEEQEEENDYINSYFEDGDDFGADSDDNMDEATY

[7] = target: T8, sorting nexin 1, transcript variant 1 (human, UniProt Q13596 1-522)
T8 construct: also called SNX1
T8 sequence (Q13596 whole entry, change not shown): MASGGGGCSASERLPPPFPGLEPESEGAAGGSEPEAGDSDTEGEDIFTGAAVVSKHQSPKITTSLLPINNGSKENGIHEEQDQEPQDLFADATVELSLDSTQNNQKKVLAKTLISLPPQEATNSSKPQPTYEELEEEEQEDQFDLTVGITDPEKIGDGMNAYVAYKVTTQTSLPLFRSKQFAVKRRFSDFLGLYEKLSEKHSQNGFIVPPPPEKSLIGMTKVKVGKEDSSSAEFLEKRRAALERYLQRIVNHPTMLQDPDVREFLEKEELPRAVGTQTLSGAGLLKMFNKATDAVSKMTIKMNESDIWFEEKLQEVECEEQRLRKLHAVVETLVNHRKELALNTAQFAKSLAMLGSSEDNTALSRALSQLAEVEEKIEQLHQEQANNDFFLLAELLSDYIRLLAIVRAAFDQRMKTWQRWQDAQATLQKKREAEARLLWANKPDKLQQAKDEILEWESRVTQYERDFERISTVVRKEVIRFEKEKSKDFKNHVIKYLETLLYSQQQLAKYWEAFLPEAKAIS

[8] = target: CRK like proto-oncogene, adaptor protein, transcript variant 1 (human, UniProt P46109 1-303)
Chain of CRK like proto-oncogene, adaptor protein, transcript variant 1 (P46109 whole entry, change not shown): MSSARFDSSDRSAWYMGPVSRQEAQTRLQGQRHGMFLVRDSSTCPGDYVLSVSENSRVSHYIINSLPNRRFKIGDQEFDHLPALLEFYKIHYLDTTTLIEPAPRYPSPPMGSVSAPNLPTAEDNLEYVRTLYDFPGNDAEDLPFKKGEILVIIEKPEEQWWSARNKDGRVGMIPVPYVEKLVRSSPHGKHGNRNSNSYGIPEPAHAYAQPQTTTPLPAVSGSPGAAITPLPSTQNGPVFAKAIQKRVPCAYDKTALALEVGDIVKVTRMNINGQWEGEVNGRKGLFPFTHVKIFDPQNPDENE

F-box protein 2 = target: T9, F-box protein 2 (human, UniProt Q9UK22 1-296)
T9 construct: also called FBXO2
T9 sequence: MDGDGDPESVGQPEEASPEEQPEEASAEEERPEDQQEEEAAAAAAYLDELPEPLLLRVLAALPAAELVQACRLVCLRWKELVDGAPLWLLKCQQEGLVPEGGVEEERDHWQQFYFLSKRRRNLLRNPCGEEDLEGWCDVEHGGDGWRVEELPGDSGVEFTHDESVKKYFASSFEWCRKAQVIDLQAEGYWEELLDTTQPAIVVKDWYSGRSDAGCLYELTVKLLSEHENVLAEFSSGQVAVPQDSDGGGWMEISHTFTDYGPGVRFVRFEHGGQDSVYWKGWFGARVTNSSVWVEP

tubulin gamma 1 = target: T10, tubulin gamma 1 (human, UniProt P23258 1-451)
T10 construct: also called TUBG1
T10 sequence (P23258 whole entry): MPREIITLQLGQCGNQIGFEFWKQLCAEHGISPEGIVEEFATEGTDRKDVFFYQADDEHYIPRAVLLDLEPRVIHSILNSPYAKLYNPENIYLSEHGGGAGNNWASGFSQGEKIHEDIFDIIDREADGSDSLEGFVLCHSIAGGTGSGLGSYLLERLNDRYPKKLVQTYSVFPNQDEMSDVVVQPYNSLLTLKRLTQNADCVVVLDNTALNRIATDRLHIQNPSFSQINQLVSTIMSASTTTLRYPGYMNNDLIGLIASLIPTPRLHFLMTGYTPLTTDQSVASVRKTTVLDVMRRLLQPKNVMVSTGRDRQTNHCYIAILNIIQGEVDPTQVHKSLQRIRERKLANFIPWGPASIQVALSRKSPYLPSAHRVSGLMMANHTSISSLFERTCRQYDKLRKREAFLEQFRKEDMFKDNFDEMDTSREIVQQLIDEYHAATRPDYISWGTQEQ

[9] = target: T11, oxidation resistance 1, transcript variant 1 (human, UniProt Q8N573 90-874, limits assumed)
T11 construct: also called OXR1
T11 sequence: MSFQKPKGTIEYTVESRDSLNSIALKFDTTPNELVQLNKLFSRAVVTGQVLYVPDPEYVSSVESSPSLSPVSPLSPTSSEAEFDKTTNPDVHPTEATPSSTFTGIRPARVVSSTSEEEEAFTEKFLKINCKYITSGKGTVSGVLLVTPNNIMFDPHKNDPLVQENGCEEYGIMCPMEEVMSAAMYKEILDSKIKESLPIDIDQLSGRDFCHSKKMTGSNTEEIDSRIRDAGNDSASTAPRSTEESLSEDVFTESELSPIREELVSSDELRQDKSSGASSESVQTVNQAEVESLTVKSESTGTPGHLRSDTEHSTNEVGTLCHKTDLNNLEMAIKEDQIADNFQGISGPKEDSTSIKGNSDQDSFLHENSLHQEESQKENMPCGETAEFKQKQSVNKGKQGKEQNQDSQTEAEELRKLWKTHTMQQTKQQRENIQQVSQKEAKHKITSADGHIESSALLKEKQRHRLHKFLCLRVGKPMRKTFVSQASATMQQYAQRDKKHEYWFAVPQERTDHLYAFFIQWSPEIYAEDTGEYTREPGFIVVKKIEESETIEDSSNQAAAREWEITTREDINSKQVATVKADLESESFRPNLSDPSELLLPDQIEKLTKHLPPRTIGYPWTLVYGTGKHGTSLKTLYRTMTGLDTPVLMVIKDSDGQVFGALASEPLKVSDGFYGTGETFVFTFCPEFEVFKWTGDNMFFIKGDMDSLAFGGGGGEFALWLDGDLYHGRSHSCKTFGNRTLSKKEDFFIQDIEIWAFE

B1: TBRE1034 (antibody, V domains shown)
VH: QVQLVESGGGLVEPGGSLRLSCAASGFTFSDYYMSWIRQAPGKRLEWISHMSSGGNRRHYADSVRGRFTISRDNAKNSLYLQMNSMRADDTAVYYCARDKRSGMTSDRRIDYWGQGTRVTVSS
VL: DIQMTQSPSSLSASVGDRITITCRASQSVGTYLSWFQQKPGKAPKLLIYAASSLQSGVPSRFSGSGSGTDFTLTISSLQPEDFATYFCQQSYSVPPWTFGQGTKVEIKR
notes: VH/VL only
binding result [1]: binds
binding result [2]: binds

B2: TOVA1005 (antibody, V domains shown)
VH: QITLKESGPTLVKPTQTLTLTCTFSGFSLSTNGVGVGWIRQPPGKALEWLALINWDDDKRYSPSLKSRLTITKDTSKNQVVLTMTNLDPVDTATYYCVHARDDYGDSAWSTGPVWGQGTLVTVSS
VL: DFLLTQPHSVSESPGKTVTISCTRSSGSIASNYVQWYQQRPGSSPSTVIYEDHQRPSGVPGRFSGSIDSSSNSASLTISGLKTEDEADYFCQSSDSNNHVVFGGGTKLTVLG
binding result [3]: binds
binding result (DEAD-box helicase 53): binds

B3: TOVA1007 (antibody, V domains shown)
VH: PVQLQESGPGLVNPSQTLSLTCTVSGGSISSGGYCWSWVRQHPGKGLEWIGCIYYIGTTYYMRSLKSRLIISIDTSKNQFSLKLTSVTAADSAVYYCARGGELLGGFGYSGMDVWGQGTTVTVSS
VL: not shown
binding result [4]: binds

B4: TPAN1001 (antibody, V domains shown)
VH: QVQLVQSGAEVKKPGSSVKVSCKASRGTFSNHAVSWVRQAPGQGLEWVGGIIPVFGPPNYAQKFRGRVTITADRSTNTAYMELNSLRSEDTAVYYCARTQWGTDVEATNPYYYFMDVWGKGTTVTVSS
VL: EIVLTQSPGTLSLSPGHRATLSCRASQDVASTYLAWYQQKPGQAPRLLIYGASSRATGIPDRFSGSGSGTDFTLTISRLEPEDFAVFYCQYYGGSPGFTFGPGTKVDFKR
binding result [5]: binds

B5: TPAN1003 (antibody, V domains shown)
VH: QVQLVQSGAEVKKPGASVKISCQAFGYNFIDNAIHWVRQAPGQRPEWMGWINAGNGNTRYSQNFQGRVTITKVTSASTAYMEMSRLKSEDTAVYFCARSSKWTDWHFDYWGQGTLVTVSS
VL: EIVLTQSPGTLSLSPGETATLSCRASQSVANNYLAWHQQKPGQAPRLLIYGASKRAAGIPDRFSGSGSGTEFTLTISRLEPEDCAVYYCQEYVKSPGFAFGPGTRVDIKR
binding result [6]: binds

B6: TPAN1004 (antibody, V domains shown)
VH: QIQLVQSGAEVKKPGASVKVSCKTSGYTFTHYGVAWVRQAPGQGPEWMGWISPYNGNIEYGQKFQGRVTMTTDTSTNTAYMELRSLRYDDTAVYYCARDLDEINSSWLDPWGQGTLIIVSP
VL: EIVLTQSPATLSLSPGERATLSCRASQSVSSNYLAWYQQKPGQAPRLLIHGASSRATGFPDRFSGSGSGTDFTLTINRLEPEDFAVYYCQQYGTSPQTFGQGTKVEIKR
binding result [7]: binds

B7: TPAN1006 (antibody, V domains shown)
VH: QVQLVQSGAEVKKPGASVKLSCKPSGYTFSSYYIHWLRQAPGQGLEWMGIINPSGGYTSSAQKFQGRVTMTRDTSTSTIYMELSSLRAEDTAVYYCARRGEVGTMVRVFRKPFDYWGQGTLVTVSS
VL: QSVLTQPPSVSGAPGQRVTISCTGSSSNIGAQYDVHWYKVIPGTAPKLLIYGNDNRPSGVPDRFSGSKSGTSASLAITGLQSEDEADYYCQSNDISLSGSVVFGGGTKLTVLG
binding result [8]: binds

B8: TPAN1007 (antibody, V domains shown)
VH: PVQLVQSGAEVKKPGESLKISCQGSGYNFSRYWIGWVRQMPGKGLEWMGVVFPGDSDIRYSLSFQGHITIYADNSISTAYLQWSSLKASDTAIYYCATTSTMPMPTRGRDWFDPWGQGTLVTVSS
VL: PSVLTQPPSVSGAPGQRVTISCTGSSSNIGAGYDVHWYQQLPGTAPKLLIYANTNRPSGVPDRFSGSKSGTSASLAITGLQAEDEADYYCQSYDNSLSGGVFGGGTKLTVLG
binding result (F-box protein 2): binds
binding result (tubulin gamma 1): binds

B9: TPRO1001 (antibody, V domains shown)
VH: EVQLVQSGAEVKKPGESLRISCKGSGYSFTSFWISWVRQMPGKGLEWMGRIDPSDSYTNYSPSFQGHVTISADKSISTAFLQWSSLKASDTAMYYCARHQQKYSPISPLDYWGQGTLVTVSS
VL: QSALTQPASVSGSPGQSITISCTGTSSDVGGYNYVSWYQQHPGKAPKLMIYDVSNRPSGVSNRFSGSKSGNTASLTISGLQAEDEADYYCSSYTSSSSLVFGGGTKVTVLG
binding result [9]: binds
